Paper PMC9122893 (Cell host & microbe, 2021)

Target: T1, IpaH7.8 wild-type (recombinant) (Shigella flexneri, UniProt P18014 2-565)
T1 sequence: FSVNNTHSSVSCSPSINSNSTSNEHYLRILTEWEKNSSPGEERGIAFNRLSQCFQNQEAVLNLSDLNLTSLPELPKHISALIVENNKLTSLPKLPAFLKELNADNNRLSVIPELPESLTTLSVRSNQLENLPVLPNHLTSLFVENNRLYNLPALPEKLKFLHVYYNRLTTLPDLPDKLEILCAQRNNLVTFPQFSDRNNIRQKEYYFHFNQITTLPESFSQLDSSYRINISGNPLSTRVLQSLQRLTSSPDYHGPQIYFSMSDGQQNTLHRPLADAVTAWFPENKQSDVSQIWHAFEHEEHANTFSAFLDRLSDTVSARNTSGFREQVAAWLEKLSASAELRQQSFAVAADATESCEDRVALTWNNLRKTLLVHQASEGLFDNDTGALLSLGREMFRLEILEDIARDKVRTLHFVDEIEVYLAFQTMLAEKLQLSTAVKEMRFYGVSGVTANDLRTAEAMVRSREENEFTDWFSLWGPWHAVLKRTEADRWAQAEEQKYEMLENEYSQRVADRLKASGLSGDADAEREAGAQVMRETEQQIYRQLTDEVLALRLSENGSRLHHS
Assay: MST

B1: hsGSDMD-1D4 (purified, dye-labelled) (natural protein)
chain: MGSAFERVVRRVVQELDHGGEFIPVTSLQSSTGFQPYCLVVRKPSSSWFWKPRYKCVNLSIKDILEPDAAEPDVQRGRSFHFYDAMDGQIQGSVELAAPGQAKIAGGAAVSDSSSTSMNVYSLSVDPNTWQTLLHERHLRQPEHKVLQQLRSRGDNVYVVTEVLQTQKEVEVTRTHKREGSGRFSLPGATCLQGEGQGHLSQKKTVTIPSGSTLAFRVAQLVIDSDLDVLLFPDKKQRTFQPPATGHKRSTSEGAWPQLPSGLSMMRCLHNFLTDGVPAEGAFTEDFQGLRAEVETISKELELLDRELCQLLLEGLEGVLRDQLALRALEEALEQGQSLGPVEPLDGPAGAVLECLVLSSGMLVPELAIPVVYLLGALTMLSETQHKLLAEALESQTLLGPLELVGSLLEQSAPWQERSTMSLPPGLLGNSWGEGAPAWVLLDECGLELGEDTPHVCWEPQAQGRMCALYASLALLSGLSQEPH
modifications: labelled with the 2nd generation red-maleimide dye (Nanotemper protein labeling kit)
Kd: 194 nM
